In paper PMC4768490 (Structure (London, England : 1993), 2015):

T1: Kap60 lacking the IBB (ΔIBB-Kap60) (S. cerevisiae, UniProt Q02821 88-509)
T1 sequence: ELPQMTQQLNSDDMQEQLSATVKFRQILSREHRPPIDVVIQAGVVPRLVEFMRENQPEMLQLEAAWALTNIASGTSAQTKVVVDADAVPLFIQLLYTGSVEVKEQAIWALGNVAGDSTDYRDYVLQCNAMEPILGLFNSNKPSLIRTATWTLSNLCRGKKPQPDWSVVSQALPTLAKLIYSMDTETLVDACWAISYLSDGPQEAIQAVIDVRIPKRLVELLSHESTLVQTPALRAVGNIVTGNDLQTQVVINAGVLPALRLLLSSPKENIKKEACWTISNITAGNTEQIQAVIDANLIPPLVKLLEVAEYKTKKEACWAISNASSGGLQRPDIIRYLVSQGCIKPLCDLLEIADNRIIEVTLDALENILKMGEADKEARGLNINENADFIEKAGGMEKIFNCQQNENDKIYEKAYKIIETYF

B1: MBP-tagged h1NLS (MBP-h1NLS), wild type (peptide, UniProt Q03707 171-221, looked up)
chain: DTRKKRKDPDSDDWSESNSKENKIDNKHLNLLSSDSEIEQDYQKAKKRKTS
B2: MBP-h1NLS with Ala-mutation at position P2 (K190A) (peptide, UniProt Q03707 171-221, looked up)
chain: DTRKKRKDPDSDDWSESNSAENKIDNKHLNLLSSDSEIEQDYQKAKKRKTS
B3: MBP-h1NLS with Ala-mutation at position P2' (R176A) (peptide, UniProt Q03707 171-221, looked up)
chain: DTRKKAKDPDSDDWSESNSKENKIDNKHLNLLSSDSEIEQDYQKAKKRKTS
B4: MBP-h1NLS with Ala-mutations at positions P2' and P2 (R176A, K190A) (peptide, UniProt Q03707 171-221, looked up)
chain: DTRKKAKDPDSDDWSESNSAENKIDNKHLNLLSSDSEIEQDYQKAKKRKTS
B5: MBP-Nup2 (res. 1-51) (domain or fragment, S. cerevisiae, UniProt P32499 1-51, looked up)
chain: MAKRVADAQIQRETYDSNESDDDVTPSTKVASSAVMNRRKIAMPKRRMAFK

Key:
[1] = biological target: Kap60 lacking the IBB (ΔIBB-Kap60) (S. cerevisiae) (UniProt Q02821); assay: ITC
[2] = biological target: T1, Kap60 lacking the IBB (ΔIBB-Kap60); assay: ITC
[3] = biological target: T1, Kap60 lacking the IBB (ΔIBB-Kap60); assay: pull-down

Row | Molecule | Kd [2] | further results
1 | nucleoplasmin bipartite NLS (NP-NLS), control (peptide) |  | Kd [1]: 46 nM
2 | B1 | 30.5 ± 10 nM | 
3 | B2 | 68.6 ± 14 nM | 
4 | B3 | 123 ± 8.6 nM | 
5 | B4 | 140 ± 26 nM | 
6 | TNKRKREQISTDNEAKMQIQEEKSPKKKRKKRSSKANK (peptide, UniProt Q03281 100-137, looked up) [MBP-tagged h2NLS (MBP-h2NLS), wild type] | 27.3 ± 8 nM | 
7 | TNKRKREQISTDNEAKMQIQEEKSPKAKRKKRSSKANK (peptide, UniProt Q03281 100-137, looked up) [MBP-h2NLS with Ala-mutation at position P2 (K126A)] | 106 ± 15 nM | 
8 | TNKAKREQISTDNEAKMQIQEEKSPKKKRKKRSSKANK (peptide, UniProt Q03281 100-137, looked up) [MBP-h2NLS with Ala-mutation at position P2' (R103A)] | 132 ± 27 nM | 
9 | TNKAKREQISTDNEAKMQIQEEKSPKAKRKKRSSKANK (peptide, UniProt Q03281 100-137, looked up) [MBP-h2NLS with Ala-mutations at positions P2' and P2 (R103A, K126A)] | 168 ± 32 nM | 
10 | B5 |  | percent of the ΔIBB-Kap60:h2NLS complex dissociated at 10-fold excess of Nup2 [3]: 60%
